Here are results for four molecules from patent US20210403582A1 (JACOBIO PHARMACEUTICALS, published 2021).

In one experiment the target is T1, human CNTF (human, UniProt P26441 1-200, limits assumed).
T1 sequence (looked up): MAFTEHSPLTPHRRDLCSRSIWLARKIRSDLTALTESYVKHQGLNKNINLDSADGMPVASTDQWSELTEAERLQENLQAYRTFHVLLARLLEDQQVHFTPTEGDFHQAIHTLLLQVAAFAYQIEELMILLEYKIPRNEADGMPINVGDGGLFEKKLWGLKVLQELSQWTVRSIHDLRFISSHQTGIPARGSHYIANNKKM
The experiment in a line: ELISA, human CNTF coated at 1 µg/mL, HRP goat anti-mouse Fab, A450. The procedure: (§1) After washed four times with PBST, HRP-labeled goat anti-mouse Fab secondary antibodies were added and incubated at room temperature for 1 h. After washed four times with PBST, TMB colored solution was added and color developing for 10 min at room temperature. The absorption value at 450 nm was read by the enzyme maker. The data were analyzed and plotted using Origin pro 9 software.
On the technique in general: ELISA stands for enzyme-linked immunosorbent assay.

In experiment [1] the target is T2, human LIF protein (human, UniProt P15018 23-202).
T2 construct: Bought recombinant protein (Sino Biological / Yiqiao Shenzhou 14890-HNAH) in most assays; also called recombinant human LIF protein; rhLIF
The experiment in a line: competition ELISA, LIF coated, competitor LIFR-Fc 0.6125 ug/mL detected with anti-human Fc.

Another experiment has as its target T3, human OSM (human, UniProt P13725 26-221, limits assumed).
T3 sequence (looked up): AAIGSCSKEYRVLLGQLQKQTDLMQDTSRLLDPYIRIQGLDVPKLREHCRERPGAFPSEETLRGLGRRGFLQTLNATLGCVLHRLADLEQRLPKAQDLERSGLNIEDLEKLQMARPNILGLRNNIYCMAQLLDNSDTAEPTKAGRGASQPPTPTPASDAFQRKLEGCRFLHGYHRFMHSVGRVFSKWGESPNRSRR
The experiment in a line: ELISA, human OSM coated at 1 µg/mL, HRP goat anti-mouse Fab, A450. The protocol: as §1

The next experiment deals with human IL-6 (human, UniProt P05231 30-212, limits assumed). The experiment in a line: ELISA, human IL-6 coated at 1 µg/mL, HRP goat anti-mouse Fab, A450. The procedure:
as §1

For experiment [2], the target named is T2, human LIF protein. The experiment is described as follows: cell-based or functional assay.
Experiment [3] deals with T2, human LIF protein. The experiment is described as follows: competition ELISA: human LIF coated at 1 µg/mL, LIFR-Fc 0.6125 µg/mL added together with the antibody, A450. The protocol:
The recombinant human LIF protein was coated on the enzyme label plate at a concentration of 1 μg/mL, LIFR protein (expressed fusedly with human FC) at a concentration of 0.6125 μg/mL was added (50 μL/well), and the anti-human LIF antibodies 38E10E1C11, P36-033 and 38E10E1C11R which is recombinantly expressed by CHO cells (SEQ ID NOs: 41 and 43) at different concentrations simultaneously were added separately (50 μL/well) and incubated for 2 h at room temperature. After washed four times with PBST, incubated with HRP-labeled goat anti-mouse FC secondary antibody for 1 h at room temperature. Then the plates were washed four times with PBST and added with TMB coloured solution in for 10 minutes. The absorption value at 450 nm is quantitated using an enzyme-labelling measuring instrument, and the data was analyzed and plotted using Origin pro 9 software.

For experiment [4], the target named is T2, human LIF protein. The experiment in a line: ELISA, antigen coated 0.5 ug/ml, 293S supernatant heated 70 C 5 min, antibody 0.04 ug/mL. The protocol: (§2) Each well was coated with 100 μL of 0.5 μg/ml antigen and incubate overnight at 4° C., and the plates were washed three times with 300 μL of Wash Buffer. The plates were closed with 200 μL of Closure Buffer (2% bovine serum albumin) for 60 min at room temperature. The plates were washed three times with 300 μL of Wash Buffer. 100 μL of diluted anti-LIF antibody at different concentrations was added to each well and incubate for 1 hour at room temperature. The plates were washed 4 times with 300 μL of Wash Buffer. 100 μL of HRP-labeled goat anti-human Fc secondary antibody at a dilution of 1:5000 was added and incubate for 1 hour at room temperature. The plates were washed 6 times with 300 μL of Wash Buffer. 100 μL of H₂O₂-Amplx Color Development Solution was added for developing the color for 10 min at room temperature under dark conditions. The OD 450 value was read by an enzyme marker. Heat treatment: the expression medium was heated on the PCR machine at 70° C. for 5 min and then rapidly cooled to room temperature. Perform subsequent ELISA assays as above.

The target in experiment [5] is T2, human LIF protein. The experiment in a line: BLI (Gator), antibody on anti-human Fc biosensor, human LIF in solution. The protocol:
The affinity of anti-LIF antibody to human LIF protein was determined using Gator. The anti-human LIF antibody was first diluted to 5 ug/mL with PBS and then added to A-F wells in second column of the 96-well plate (200 μL per well). […] PBS was added to A-F wells in the first and third columns (200 μL per well). The 96-well plates were placed into the instrument and detected with anti-human Fc biosensor.

In experiment [6] the target is T2, human LIF protein. The experiment is described as follows: ELISA, antigen coated 0.5 ug/ml, 293S supernatant non-heated, antibody 0.2 ug/mL. The procedure: as §2
The target of experiment [7] is T2, human LIF protein. The experiment in a line: ELISA, antigen coated 0.5 ug/ml, 293S supernatant non-heated, antibody 1 ug/mL. The protocol: as §2
Experiment [8] has as its target T2, human LIF protein. The experiment in a line: ELISA, antigen coated 0.5 ug/ml, 293S supernatant heated 70 C 5 min, antibody 1 ug/mL. The procedure:
as §2

Experiment [9] concerns the target T2, human LIF protein. The experiment is described as follows: ELISA, antigen coated 0.5 ug/ml, 293S supernatant heated 70 C 5 min, antibody 0.2 ug/mL. The protocol: as §2
For experiment [10], the target named is T4, Mut3 heterozygous LIF protein (human LIF with residues 182-202 of …, UniProt P15018 23-201, limits assumed).
T4 construct: Secreted into the supernatant of transfected 293T cells; also called Mut3 protein
The experiment is described as follows: western blot of 293T culture supernatants, primary antibody 1 µg/mL, HRP anti-human Fc. The procedure: (§3) The supernatant of 293T cells transfected with human LIF full-length gene sequence, Mut3 and Mut4 protein sequences after 3 days of culture, and the negative control of 293T cell culture supernatant were taken, 5×SDS-PAGE loading buffer was added, and boiled for 10 minutes. Then 10 μL of sample was taken for SDS-PAGE electrophoresis, and then the electrophoretic bands were transferred to PVDF membrane for western blot detection. The primary antibody for detection was 38E huH3L2 or 38E huH3L4 antibody at a concentration of 1 μg/mL, and was incubated for 2 hours at room temperature. Then washed three times in PBST buffer and diluted HRP-labeled sheep anti-human Fc secondary antibody at a dilution ration of 1:3000 was added, incubated with the secondary antibody for 2 hours at room temperature, washed three times in PBST buffer and enhanced Chemiluminescent solution (Perice, item no. 34079) was added and incubated. An Amersham Imager 600 ultra-sensitive multifunctional imager was used for detection and photograph. […] The same results were obtained in the M1 cell proliferation assay, and the results were detailed in subfigure B in FIG. 22. Therefore, the epitope sequences recognized by the 38E huH3L2 and 38E huH3L4 antibodies were determined to be […] (SEQ ID NO: 61).
Background: A western blot detects proteins with antibodies after separation by electrophoresis.

The target in experiment [11] is T5, Mut4 heterozygous LIF protein (human LIF with residues 166-202 of …, UniProt P15018 23-201, limits assumed).
T5 construct: Secreted into the supernatant of transfected 293T cells; also called Mut4 protein
Described as above. The protocol: as §3

The target of experiment [12] is T2, human LIF protein. The experiment is described as follows: ELISA, antigen coated 0.5 ug/ml, 293S supernatant non-heated, antibody 0.04 ug/mL. The protocol: as §2

Positions count from the first letter of the chain named.

In general, IC50 refers to the concentration needed to halve the response being measured. Lower therefore signals higher potency. The Kd is the concentration at which binding is half-saturated. Usually koff stands for a measure of how fast the partners let go of each other. The low end stands for a long-lived complex, the high end for a short-lived complex. A word on the kon: it is the second-order rate constant of association. A higher kon goes with faster complex formation.

human IL-6, sequence (P05231 30-212 limits assumed): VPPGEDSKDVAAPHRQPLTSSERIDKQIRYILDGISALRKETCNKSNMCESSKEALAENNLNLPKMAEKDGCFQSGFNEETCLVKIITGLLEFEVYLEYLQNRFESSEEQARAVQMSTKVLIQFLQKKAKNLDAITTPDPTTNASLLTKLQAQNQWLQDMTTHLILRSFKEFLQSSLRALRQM

B1: 38E HuH3L4-m (antibody, mouse IgG1, kappa)
heavy: EVMLVESGGGLVQPGGSLRLSCAASGFIFSSYAMSWVRQAPETRLEWVATISSGGSNTYSPDTVKGRFTISRDNSKNTLYLQMNSLRAEDTAMYYCARYYGYYFDFWGQGTLLTVSSAKTTPPSVYPLAPGSAAQTNSMVTLGCLVKGYFPEPVTVTWNSGSLSSGVHTFPAVLQSDLYTLSSSVTVPSSTWPSETVTCNVAHPASSTKVDKKIVPRDCGCKPCICTVPEVSSVFIFPPKPKDVLTITLTPKVTCVVVDISKDDPEVQFSWFVDDVEVHTAQTQPREEQFNSTFRSVSELPIMHQDWLNGKEFKCRVNSAAFPAPIEKTISKTKGRPKAPQVYTIPPPKEQMAKDKVSLTCMITDFFPEDITVEWQWNGQPAENYKNTQPIMDTDGSYFVYSKLNVQKSNWEAGNTFTCSVLHEGLHNHHTEKSLSHSPGK
light: DIHMTQSPSSLSASVGDRVTITCRASENIYSYLAWYQQKQGKSPQLLVYNAKTLAEGVPSRFSGSGSGTQFTLKINSLQPEDFATYYCQHHYVTPLTFGQGTKLEIKRADAAPTVSIFPPSSEQLTSGGASVVCFLNNFYPKDINVKWKIDGSERQNGVLNSWTDQDSKDSTYSMSSTLTLTKDEYERHNSYTCEATHKTSTSPIVKSFNRNEC
notes: Humanized variable regions of 38E HuH3L4 on mouse IgG1 / kappa constant regions
With B1, the binding result with human CNTF, with human OSM and with human IL-6 was “no binding (tested: 25 ug/ml)” each time. Besides, in the experiment with human LIF protein [1], the IC50 came out at 0.103 µg/mL. Further, the “EC50, reversal of proliferation inhibition of M1 cells (CCK-8)” value with human LIF protein [2] was determined as 6.52 µg/mL.

B2: 38E10E1C11R (38E10E1C11 antibody recombinantly expressed by CHO cells) (antibody, mouse IgG1, kappa)
heavy: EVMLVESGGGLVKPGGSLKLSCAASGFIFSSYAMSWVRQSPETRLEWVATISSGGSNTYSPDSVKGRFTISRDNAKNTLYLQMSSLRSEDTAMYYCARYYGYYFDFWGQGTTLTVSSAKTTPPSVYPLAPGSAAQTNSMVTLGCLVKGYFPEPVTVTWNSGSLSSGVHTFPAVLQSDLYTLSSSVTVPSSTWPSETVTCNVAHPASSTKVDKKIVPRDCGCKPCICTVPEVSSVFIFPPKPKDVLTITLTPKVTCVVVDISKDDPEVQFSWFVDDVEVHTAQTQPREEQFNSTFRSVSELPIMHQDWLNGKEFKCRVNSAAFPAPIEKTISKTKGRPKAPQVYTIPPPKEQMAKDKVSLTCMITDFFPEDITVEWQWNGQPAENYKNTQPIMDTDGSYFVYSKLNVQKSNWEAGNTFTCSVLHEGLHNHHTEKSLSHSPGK
light: B1 light with S9A, D17E, R18T, T72S, A84G, T85S, Q100A, I106L
Consider B2, for which the “IC50 (read off the curve)” value with human LIF protein [3] was roughly 0.2 µg/mL.

B3: 38E HuH3L2 (antibody, human IgG1, kappa, N297A)
heavy: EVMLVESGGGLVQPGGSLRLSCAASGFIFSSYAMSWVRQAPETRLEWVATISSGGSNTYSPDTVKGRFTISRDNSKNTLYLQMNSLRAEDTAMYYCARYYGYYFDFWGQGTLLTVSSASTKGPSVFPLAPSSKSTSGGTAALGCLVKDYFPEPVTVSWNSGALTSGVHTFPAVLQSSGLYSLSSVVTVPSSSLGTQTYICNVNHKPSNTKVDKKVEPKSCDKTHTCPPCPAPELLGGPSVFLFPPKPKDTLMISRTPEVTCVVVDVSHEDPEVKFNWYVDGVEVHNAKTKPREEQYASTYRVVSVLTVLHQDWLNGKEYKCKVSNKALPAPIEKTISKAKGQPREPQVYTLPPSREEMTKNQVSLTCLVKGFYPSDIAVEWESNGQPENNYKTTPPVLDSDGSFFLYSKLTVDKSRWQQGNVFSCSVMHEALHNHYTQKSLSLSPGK
light: DIHMTQSPSSLSASVGDRVTITCRASENIYSYLAWYQQKPGKSPKLLVYNAKTLAEGVPSRFSGSGSGTDFTLTISSLQPEDFATYYCQHHYVTPLTFGQGTKLEIKRTVAAPSVFIFPPSDEQLKSGTASVVCLLNNFYPREAKVQWKVDNALQSGNSQESVTEQDSKDSTYSLSSTLTLSKADYEKHKVYACEVTHQGLSSPVTKSFNRGEC
notes: Humanized, human IgG1 / kappa
B3: the ELISA signal with human LIF protein [4] is 5060; with human LIF protein [6], 10600; with human LIF protein [7], 11300; with human LIF protein [8], 9450; with human LIF protein [9] it was 8780; with human LIF protein [12], 6600. Also, the Kd in the experiment with human LIF protein [5] turned out to be 0.0538 nM. For the same molecule, the koff in the experiment with human LIF protein [5] was 3.39e-05 s⁻¹. In the experiment with human LIF protein [5], the kon was 631000 M⁻¹ s⁻¹. Moreover, the binding result in experiment [10] is reported as “binds”; in experiment [11] it was “no binding (tested: primary antibody 1 µg/mL)”.

B4: 38E HuH3L4 (antibody, human IgG1, kappa, N297A)
heavy: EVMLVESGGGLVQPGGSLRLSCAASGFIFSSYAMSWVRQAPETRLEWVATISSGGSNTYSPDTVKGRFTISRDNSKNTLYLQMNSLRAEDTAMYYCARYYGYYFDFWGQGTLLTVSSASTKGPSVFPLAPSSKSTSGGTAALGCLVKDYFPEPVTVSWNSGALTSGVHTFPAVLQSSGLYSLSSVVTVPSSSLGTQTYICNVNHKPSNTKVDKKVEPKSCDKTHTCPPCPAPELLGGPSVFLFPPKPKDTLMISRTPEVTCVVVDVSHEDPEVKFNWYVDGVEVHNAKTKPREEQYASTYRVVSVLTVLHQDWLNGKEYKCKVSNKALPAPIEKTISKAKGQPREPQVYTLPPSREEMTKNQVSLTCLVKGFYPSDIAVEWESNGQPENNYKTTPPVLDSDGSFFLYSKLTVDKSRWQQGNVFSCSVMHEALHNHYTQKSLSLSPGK
light: B3 light with P40Q, K45Q, D70Q, T74K, S76N
notes: Humanized, human IgG1 / kappa
Take B4: the ELISA signal was 5300 with human LIF protein [4]; 11200 with human LIF protein [6]; 11900 in the experiment with human LIF protein [7]; 9950 in the experiment with human LIF protein [8]; 9060 with human LIF protein [9]; 7060 with human LIF protein [12]. In the experiment with human LIF protein [5], the Kd came to 0.0766 nM. Also, the koff in the experiment with human LIF protein [5] was found to be 4.44e-05 s⁻¹. Also, in the experiment with human LIF protein [5], the on-rate (kon) stood at 579000 M⁻¹ s⁻¹. In addition, in the experiment with human LIF protein [2], the “IC50, P-STAT3 (TYR705) in KP4 cells, HTRF kit” value worked out at 3.42 nM. Moreover, the binding result in experiment [10] was “binds”; in experiment [11], “no binding (tested: primary antibody 1 µg/mL)”.
